Results published in PMC7486931.

How the values were obtained:
[1] = target: T1, VtlR (rVtlR) (Agrobacterium tumefaciens C58) (UniProt A9CI74); experiment: EMSA
T1 sequence: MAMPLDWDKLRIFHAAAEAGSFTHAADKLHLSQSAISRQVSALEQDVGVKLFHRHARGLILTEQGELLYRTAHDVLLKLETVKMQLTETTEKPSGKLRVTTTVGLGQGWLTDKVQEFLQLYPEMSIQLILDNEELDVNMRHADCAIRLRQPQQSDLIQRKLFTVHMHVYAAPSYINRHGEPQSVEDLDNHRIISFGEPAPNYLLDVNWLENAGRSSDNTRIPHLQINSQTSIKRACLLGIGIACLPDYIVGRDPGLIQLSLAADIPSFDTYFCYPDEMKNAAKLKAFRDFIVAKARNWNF

[2] = target: T1, VtlR (rVtlR) (Agrobacterium tumefaciens C58); experiment: competition

| Sequence | binding [1] | binding [2] |
| --- | --- | --- |
| GAACTGGGAGGAAAAGCCACCGTGTGCATCAACTGAGAGCTATTTGGTGTTTTTTTGTGCACGAAACAACTCTTTTTTGTGCAGGTCAGGCATGCGTCGCACGCAGCCCTCGATATTTCCGGTATATTTTATGTGCAAAGCTGAAGAAGGGCGCCTGCGCGCCCCTCTTGCTTCTACCTTTACAAGGCTTTGAATTTTAAAGATTATCTTTCGACGTCGATTATTTTTACGTCAGAAGTTCCAGTTCCGC (double strand) [PabcR1] | binds | – |
| GCCGTGGGCAAGCGTGACAGCTAACTAAAATATGGGAGTGGCAAGAATGCAAAACAAGGTTGCATCATGCGATATTTCGCCAATTTGGAGAAAATTCTTGCGGGTAAAAAAAGAGGGCCGCCG (double strand) [PabcR2] | – | no binding |
